Source: a protein production outcome set (Wang et al. 2014)

Test: label from the status in PepcDB records
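Also: failed if final PepcDB status was selected cloned or expressed and not failed if soluble or beyond.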

Row | Sequence | protein production
1 | MKLEERIKSKITILVFIAILMYFLLNYGNDVRGIINNIYSIFFPFILGGCIAFILNIPVTFFSKKLLNCKIKFIGKVVRKYNISISIVASCILIIGIFALISAIIIPNIIQTIKILPNAFDNSITAFQKFVNENSWMSKNVTSLVNNLNIDWNGILNKVKITIITGASSVFMSTLGAATTFASTAIEFVLSFIFSIYILAQKNKLGTQVKMVLYAFFKKQKVDSALEVLKLTSNTFSNFITGQCTVSIILGVMFFIVMTILKLPYAIEVSIIIAFFSVIPMIGSIIGFVLSVLLLLIFNPIKAGVFVFVFLAIKQVEDNFIYPKIVGNSVGLPSILVLVAITLGGKVLGVPGMIMSIPLFSVAYVLLRKEVYTRLEKKALKVE | failed
2 | MKLETIDYRAADSAKRFVESLRETGFGVLSNHPIDKELVERIYTEWQAFFNSEAKNEFMFNRETHDGFFPASISETAKGHTVKDIKEYYHVYPWGRIPDSLRANILAYYEKANTLASELLEWIETYSPDEIKAKFSIPLPEMIANSHKTLLRILHYPPMTGDEEMGAIRAAAHEDINLITVLPTANEPGLQVKAKDGSWLDVPSDFGNIIINIGDMLQEASDGYFPSTSHRVINPEGTDKTKSRISLPLFLHPHPSVVLSERYTADSYLMERLRELGVL | not failed
3 | MKLHTSDLLIICAYLIAMIVIGLILKKRAAQNMDSYFLGGKSLPFYMLGLSNASGMFDITGTMLMVYWAFAYGFKSLWIPWLWPVFNQIFLMVYLSVWLRRSNVLTGAEWIKTRFGKGKGATLSHTIVVVFALLSVLGFLSYGFIGIGKFMEIFIPWEVISPYIPFTVSPEYVPHVYGIFFTAIATFYVMLGGMLSIVWTDVVQFLIMTVAGIVIVVIGMQMVAPDMIHSFVPAGWDSPFFGWTLDIDWSSRMSLLTERMANEPYSLIGIFVMMALLKGIFMSMAGPAPNYDMQKILSCKSPKEAAMMSGSVSVVLLIPRYLMIMGFALLAIYFFKEDGGLTQMEVTRTDFETILPHLITRYVPAGFAGLLLAGLLAAFMSTFASTVNAAPAYIVNDIYLKYINPKASVKTQIRSSYVISVAVVVVSTVIGFFLKDINEIFQWIVGALFGGYIAANVLKWHWWRFNGEGYFWGMTAGVVAAIVMKFTVPDAWVLYFFPVLFGVSLIGCIIGTYSAPATDEETLINFYVNVRPWGCWKPIQEKAIARYPHIQANKNFKRDAFNVAIGIIWQCTLTIIPMYLVVREQLGLWSSIALLLITTLILRKTWYKPLCKEEARYNEEMKQIR | failed
4 | MKLIAIDLDGTLLNSKHQVSLENENALRQAQRDGIEVVVSTGRAHFDVMSIFEPLGIKTWVISANGAVIHDPEGRLYHHETIDKKRAYDILSWLESENYYYEVFTGSAIYTPQNGRELLDVELDRFRSANPEADLSVLKQAAEVQYSQSGFAYINSFQELFEADEPIDFYNILGFSFFKEKLEAGWKRYEHAEDLTLVSSAEHNFELSSRKASKGQALKRLAKQLNIPLEETAAVGDSLNDKSMLEAAGKGVAMGNAREDIKSIADAVTLTNDEHGVAHMMKHLL | not failed
5 | MKLKGVDNKILSNIFSLLSVQGALYIIPLITLPYLVRTLGVENYGVFGFSLAIVSYMSLIVDYGFNITATKTGAEIRYDKNKLSKLFFEILYSKLFMFIICSLSSILFSFFVENNIFNKDIIFVLMFTVFSQVIFPIWFFQAIEELKLVATLNFISKSLSVPLIFILINDEKDLIKLAVIHAITTIIPAIYSVYYIHIRKLVFFYKPSLNSIVSQIKNGWHIFLSGISISFYSTIVTVFLGIFSGATETGYFVAADRLRKAVQGISGPISQSFYPRINSLINTNKKSAINLIKVLYKIQFIVTFILSSLLFIFSEEIVEVLYGNGFVQSIVILKVLSYVPFFVSMSNASGICVIVSFGFNRLFSKIMMFSGGVGVALSFLLINSYGAIGSGLSILISEFIIAIIMIYFVIKLKLLKQ | failed
6 | MKLKNILIVVDNIEESIHFYNELFGLNVISRQEGNVIMSEGLVLQDAGIWKESMQIQTIPYNNMTELYFEDNDIEGVVKKLESGRYEVRYATALTELDGGQKLVRFYDQSGNLIEVRTPWDKFVNRE | failed
7 | MKLKWWQRLLPRSAFSQTVLLIGCLLLINQLVSYVTVAVYVLKPSYQQINQLIARQINLLFVDGIDIGREHLTIVDALNAKVRDDGMKVYNQQQAREAGIEQATYYGFWSSQMTEYLGGDAEVRVTHGRVLQVWIRPPQAPSVWIKVPLIGQNVSDLSPLTLYLMVIGALSVAGGWWFARQQNRPLRRLQKAAISVSRGEFPDPLPLKGSSELVEVTNAFNQMAHSMKQLEQDRALLMAGISHDLRTPLTRIRLASEMMVEDDQYLKDGIVNDIEDMDAIISQFIAYIRQDQEASREPGQINKLIQDIAQAEANRDGEIELALADCPEALFQGLAIKRVLSNLVENAFRYGSGWVRISSQFDGKRIGFSVEDNGPGIDESQIPTLFQPFTQGDIARGSVGSGLGLAIIKRIIDRHQGQITLSNRAAGGLKAQVWLPRE | failed
8 | MKLLIISDGHGDLEKLKKIKPVADGVDALIFGGDFAAFKKIETGAPFLNELLKIHKNIFAVLGNCDEPEFEKKLKDASVSITGEVKNFEGLIFAGSGGGSKFTGTTPYERTDEELVKDLTDAFEKANITAAGNLVLVCHNPPHGAKVDKVAPMVHVGSKGITAFIEKHKPLLVVSGHIHESFAVDKIGETVLVNPGALMEGRYALAEITKNEKGFKVSVELKTLD | failed
9 | MKLPRFGVEEWLNVHENSAIYDIAGVSISSLTLEELFALSGTNPEDFYKKLQGTKLNYGWIEGSPAFKKSVSQLYTGVKPEQILQTNGATGANLLVLYSLIEPGDHVISLYPTYQQLYDIPKSLGAEVDLWQIEEENGWLPDLEKLRQLIRPTTKMICINNANNPTGAVMDRTYLEELVEIASEVGAYILSDEVYRSFSELDVPSIIEVYDKGIAVNSLSKTYSLPGIRIGWVAANHQVTDILRDYRDYTMICAGVFDDLVAQLALAHYQEILERNRHILEENLAILDQWIEEEPLVSYIRPAVVSTSFVKIAVDMPMEDFCLQLLQEHGVLLVPGNRFERDGYVRLGFACEQETLIKGLEKLSQFLRRFDKEN | not failed
10 | MKLPRLWPTALSLLCSLALAQAPASPGTTAQGPAPAAVAGLAALPGGTRLVCAGTSLWTLSTSAAPQRLPLPEDCQGLRVSPSGKVVLVSGRASVTVWRLDAEQQSDGQLWRRVALPEPARRVAFLNDSTLLLAGARGLEQLDLNTQARTLLRPGAVTGLATAPDGRRAVMGDGSRVQLVNVADGAVLSGVRCEVACPLQDVQFSRDQRGAVVQAGPVLYALREGHPATAVLRGAEGAMGFPLPDGGVWVLTAGRLERRDAQTGRREGVLRPEGVSGPAAWTPEGGLLYVAGRELVELDKTGQEVGRTALP | failed
11 | MKLRSWEFYDRIARAYDSMYETPKWKLYHRLIGSFLEEYLKNPCRVLDLGGGTGKWSLFLQERGFEVVLVDPSKEMLEVAREKGVKNVVEAKAEDLPFPSGAFEAVLALGDVLSYVENKDKAFSEIRRVLVPDGLLIATVDNFYTFLQQMIEKDAWDQITRFLKTQTTSVGTTLFSFNSYAFKPEDLDSLEGFETVDIRGIGVMEYPDERISEREETIFRLEQELSRDRNIIWKADHIFFVLKKKRGA | not failed
12 | MKLSQQSQAIIESAIQKAINKYTCGCEQTIVTDIHIQPNQNSGELFIYDDEDEELSSVTIDEWTAYEGDDFCEDAERIFRTVLCRMKENGSFDKLTILKPYSFVLVDEDKETISELLLVDDDTLLVNDELLKGLDKELDDFLKDLLEKLEHHHHHH | not failed
13 | MKLVICIVQDDDAGELIDVLTDKGLRVTKLATTGGFLKAGNTTLMIGVEEKAVDGVIETIEDVCKTRQQVVTSPSPVAGSTGVYVPYPIDVEVGGATIFVVDVDKFIKI | failed
14 | MKMEELFKKHKIVAVLRANSVEEAKEKALAVFEGGVHLIEITFTVPDADTVIKELSFLKEKGAIIGAGTVTSVEQCRKAVESGAEFIVSPHLDEEISQFCKEKGVFYMPGVMTPTELVKAMKLGHTILKLFPGEVVGPQFVKAMKGPFPNVKFVPTGGVNLDNVCEWFKAGVLAVGVGSALVKGTPDEVREKAKAFVEKIRGCTE | not failed
15 | MKMGMVFVFVLLTVFMAVMSSTRVSAQSNCKNELKKSLKPCFSYLTSSYPSLPDDSDCCPSLLDISKTSVDCFCQYLNSGGSILDINANFIQARRLPEICGVDPYLASVCNEGKNFLTSIYEETPIL | failed
16 | MKMKHAFGPIILACVLFFIIILIPSKSLVSLISDKKVEDAATSLQKEKLQSVFLQQKMLENSQYLPMYGSSEFLRMDAYHPSNYFKVNPAGFTPFLIGTGGTQSLAHILNMTSTMDELEGKKVVFVLSPQWFTKTGVSQGDFTNNFSKQQAYHFIFNDKINPEMKKQIAKRLLDYKVVQEDDILKNSLEGIVYNDSKHNIKAGLVKPLAYMHRNILDHRDLFNSLFKIEPMKEKTNIGLRSISWEDARKHAEQEGKAESTTNTFGIENPYYHKNNLKKKLKGLKNFRANETYDESPEYDDLQIILELFKEKNVKPLFISVPVNGPWYDYTGFPKERREVYYKKVREQVEKAGYPVIDFSGHEYDKYFLKDTIHLGWKGWIYFDEAVQKFYSEKLEHHHHHH | not failed
17 | MKMKLLILAVLPFLTPINMNSQEEKASWVQYVNPLIGTEVWQSGVAVAGHEDPSGYTFPGVTEPFGMTEWTAHTLESKHAGTLHHRVPYWYKHNYISGFMGTHYPSGAVMFDYGAVELMPVVGQLKCRPEERSSSFTHITEKSKPHFYEVMLDDYQVKAQLSATKTSAILQFTYPQSDSAYVVVDAMPSMFTAGAPGYIHIDPVRKEISGKSIQSARGYRETGYFVVRFDKDFDSFGTFNLNNDYPEVIEEKYLFTQKEGKWVNGLKGIYTQDSKGVGHLRSEKIDPVIDFDWDWYKPADDFSFNDYQVTWSGKLKAPSTGEYTLGIQADDGARLYINGELLIDDWKSHSFSYQPTQKKISLEAGKMYDIKLEYYQHEWSSRIKLSWIRPDKKSSTSLLTGNRHLESSTKIGGYIRFKTGKNEVIKAIVGTSFISVEQARINLEREIGAKSMETISAQTEALWNKELSVIDLPGATEQDKIVFYTALYHSFLLPRSLSEDGKYRSPFDGKVHKGISFTDYSIWDTFRATHPLFVLLKPDFAGDLITGLLHAYDEGGWLPKWPNPGYTNCMMGTHSDAIIADAYVKGVRNFDVEKAKKAVLKNAYEKGNHIAWGRLGIMDYERLGYVPVDKYGESVARTMEFAYDDYCLSRFFAEKGEPDLSDKLGKRSKNFRNVLDKETKMVRARKADGSWSNPEDYDISVWSGFNPKGVYNYKKNYTLFVPHDVPELIRFLGGTDSLAVFMDELFDKDIYYVGDEFVMHAPYMYNLCKRPWMTQKRIYDIVNKYYLPTPSGLPGNDDCGQLSSWYIFSAMGFYPMCPASIEYQLGVPCLPGFVLHLPQNRTFTIKTKNFGKGNCYVRAVYLNGKPHRSSVITHSDIINGGEILFELTDKPAYNWFQ | failed
18 | MKMKYDPGETWRSIYRENKRCDGFNNYYDDESASYQFSENPYVWKDGKERCRTIGMQNDWTALDIGAGAGSMTVPLAKICKRVTAVEPSKTMARILSSNLKKAGLDNVQIINSRWEDAPEEIERHDIIIAAYSLMIDDIEKAVLRMNSLARKKVYLYWFAGVPYWERHCLDLWSTIYGYEYTPSPKVDLIFAVLYKHGIYPDVVNLDSERPPYERVMTTEQAMDELKDSLHLKGNDEWDELLMRYIEDNYEKKEDGCWSRGGSSRMRISWSPQP | failed
